Substitutions are numbered along the chain they refer to. Numbers in names are those of the source.
T1: EsCas13d, nuclease-dead (Eubacterium siraeum, UniProt B0MS50, R295A;H300A;R849A;H854A)
T1 sequence: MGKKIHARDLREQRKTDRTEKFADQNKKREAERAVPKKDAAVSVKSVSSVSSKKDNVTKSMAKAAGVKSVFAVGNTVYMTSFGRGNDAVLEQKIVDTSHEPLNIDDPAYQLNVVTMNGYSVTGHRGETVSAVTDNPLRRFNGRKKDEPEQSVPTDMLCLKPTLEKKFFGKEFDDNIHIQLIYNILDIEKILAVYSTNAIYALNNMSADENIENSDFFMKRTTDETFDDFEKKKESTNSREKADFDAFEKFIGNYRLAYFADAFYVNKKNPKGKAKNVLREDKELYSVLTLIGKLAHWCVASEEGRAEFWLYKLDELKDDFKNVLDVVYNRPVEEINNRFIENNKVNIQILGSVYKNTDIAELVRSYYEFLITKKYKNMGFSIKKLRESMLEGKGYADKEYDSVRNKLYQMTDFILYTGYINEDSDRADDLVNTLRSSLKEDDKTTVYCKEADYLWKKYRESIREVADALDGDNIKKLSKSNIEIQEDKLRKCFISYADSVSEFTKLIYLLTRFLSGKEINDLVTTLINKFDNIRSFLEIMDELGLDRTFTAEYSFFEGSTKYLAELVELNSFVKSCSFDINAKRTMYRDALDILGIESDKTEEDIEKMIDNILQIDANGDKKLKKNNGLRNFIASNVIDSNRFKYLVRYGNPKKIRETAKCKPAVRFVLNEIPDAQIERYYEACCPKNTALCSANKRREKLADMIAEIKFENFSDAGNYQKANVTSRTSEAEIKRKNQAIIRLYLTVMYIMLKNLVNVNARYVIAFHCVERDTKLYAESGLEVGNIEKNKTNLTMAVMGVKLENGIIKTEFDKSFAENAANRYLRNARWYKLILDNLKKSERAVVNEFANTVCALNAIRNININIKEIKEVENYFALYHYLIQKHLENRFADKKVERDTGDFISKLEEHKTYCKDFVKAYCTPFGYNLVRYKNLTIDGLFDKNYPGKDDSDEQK

B1: target 1 MT 5'PFS ACC 3'PFS UCG (mixed)
RNA 1: CACCCGUGCAAAAAUGCAGGGGUCUAAAACUGAGCGGAUAACCUCUCUAUGG
RNA 2: GGGAAUGGAUCCACAUCUACGAAUUCACCCCAUAGAGAGGUUAUCCGCUCAUCGAGAUCGGAAGAGCACACGU
B2: target 1 MT 5'PFS ACC 3'PFS UCU (mixed)
RNA 1: B1 RNA 1
RNA 2: B1 RNA 2 with G54U
B3: target 1 MT 5'PFS AUG 3'PFS UCU (mixed)
RNA 1: B1 RNA 1
RNA 2: B1 RNA 2 with C28U, C29G, G54U
B4: target 1 MT 5'PFS AAA 3'PFS AAG (mixed)
RNA 1: B1 RNA 1
RNA 2: B1 RNA 2 with C28A, C29A, U52A, C53A
B5: target 1 MT 5'PFS UCA 3'PFS CAC (mixed)
RNA 1: B1 RNA 1
RNA 2: B1 RNA 2 with A27U, C29A, U52C, C53A, G54C
B6: target 1 MT 5'PFS GAC 3'PFS AUA (mixed)
RNA 1: B1 RNA 1
RNA 2: B1 RNA 2 with A27G, C28A, U52A, C53U, G54A
B7: target 1 MT 5'PFS AAG 3'PFS ACU (mixed)
RNA 1: B1 RNA 1
RNA 2: B1 RNA 2 with C28A, C29G, U52A, G54U
B8: target 1 MT 5'PFS AAA 3'PFS AAA (mixed)
RNA 1: B1 RNA 1
RNA 2: B1 RNA 2 with C28A, C29A, U52A, C53A, G54A
B9: target 1 MT 5'PFS GUU 3'PFS UAC (mixed)
RNA 1: B1 RNA 1
RNA 2: B1 RNA 2 with A27G, C28U, C29U, C53A, G54C
B10: target 1 MT 5'PFS AAA 3'PFS AAC (mixed)
RNA 1: B1 RNA 1
RNA 2: B1 RNA 2 with C28A, C29A, U52A, C53A, G54C
B11: target 1 MT 5'PFS AGG 3'PFS CCG (mixed)
RNA 1: B1 RNA 1
RNA 2: B1 RNA 2 with C28G, C29G, U52C
B12: target 1 MT 5'PFS UCA 3'PFS CAU (mixed)
RNA 1: B1 RNA 1
RNA 2: B1 RNA 2 with A27U, C29A, U52C, C53A, G54U
B13: target 1 MT 5'PFS AAG 3'PFS ACA (mixed)
RNA 1: B1 RNA 1
RNA 2: B1 RNA 2 with C28A, C29G, U52A, G54A
B14: target 1 A1G,A16U (mixed)
RNA 1: B1 RNA 1
RNA 2: B1 RNA 2 with A27G, C28U, C29A, A36U, A51G, U52C
B15: target 1 MT 5'PFS GUU 3'PFS UAA (mixed)
RNA 1: B1 RNA 1
RNA 2: B1 RNA 2 with A27G, C28U, C29U, C53A, G54A
B16: target 1 MT 5'PFS AAG 3'PFS ACG (mixed)
RNA 1: B1 RNA 1
RNA 2: B1 RNA 2 with C28A, C29G, U52A
B17: target 1 MT 5'PFS CCG 3'PFS CGG (mixed)
RNA 1: B1 RNA 1
RNA 2: B1 RNA 2 with A27C, C29G, U52C, C53G
B18: target 1 insC 3' of 20,insC 3' of 15 (mixed)
RNA 1: B1 RNA 1
RNA 2: GGGAAUGGAUCCACAUCUACGAAUUCGUACCACUAGAGCAGGUUAUCCGCUCACCGAGAUCGGAAGAGCACACGU
B19: target 1 U3G,C7A (mixed)
RNA 1: B1 RNA 1
RNA 2: B1 RNA 2 with A27G, C28U, C29A, C45A, U49G, U52C
B20: target 1 MT 5'PFS GUU 3'PFS UAG (mixed)
RNA 1: B1 RNA 1
RNA 2: B1 RNA 2 with A27G, C28U, C29U, C53A
B21: target 1 MT 5'PFS GUU 3'PFS UAU (mixed)
RNA 1: B1 RNA 1
RNA 2: B1 RNA 2 with A27G, C28U, C29U, C53A, G54U
B22: target 1 MT 5'PFS GAA 3'PFS UCA (mixed)
RNA 1: B1 RNA 1
RNA 2: B1 RNA 2 with A27G, C28A, C29A, G54A
B23: target 1 MT 5'PFS AAG 3'PFS ACC (mixed)
RNA 1: B1 RNA 1
RNA 2: B1 RNA 2 with C28A, C29G, U52A, G54C
B24: target 1 MT 5'PFS UGC 3'PFS UGU (mixed)
RNA 1: B1 RNA 1
RNA 2: B1 RNA 2 with A27U, C28G, C53G, G54U
B25: target 1 MT 5'PFS UCA 3'PFS CAG (mixed)
RNA 1: B1 RNA 1
RNA 2: B1 RNA 2 with A27U, C29A, U52C, C53A
B26: target 1 MT 5'PFS AUG 3'PFS UCC (mixed)
RNA 1: B1 RNA 1
RNA 2: B1 RNA 2 with C28U, C29G, G54C
B27: target 1 MT 5'PFS GCG 3'PFS UCU (mixed)
RNA 1: B1 RNA 1
RNA 2: B1 RNA 2 with A27G, C29G, G54U
B28: target 1 MT 5'PFS ACU 3'PFS UCU (mixed)
RNA 1: B1 RNA 1
RNA 2: B1 RNA 2 with C29U, G54U
B29: target 1 MT 5'PFS AGG 3'PFS AAU (mixed)
RNA 1: B1 RNA 1
RNA 2: B1 RNA 2 with C28G, C29G, U52A, C53A, G54U
B30: target 1 MT 5'PFS GAA 3'PFS UCU (mixed)
RNA 1: B1 RNA 1
RNA 2: B1 RNA 2 with A27G, C28A, C29A, G54U
B31: target 1 MT 5'PFS AGG 3'PFS AAA (mixed)
RNA 1: B1 RNA 1
RNA 2: B1 RNA 2 with C28G, C29G, U52A, C53A, G54A
B32: target 1 MT 5'PFS AAC 3'PFS UCC (mixed)
RNA 1: B1 RNA 1
RNA 2: B1 RNA 2 with C28A, G54C
B33: target 1 MT 5'PFS GAC 3'PFS AUC (mixed)
RNA 1: B1 RNA 1
RNA 2: B1 RNA 2 with A27G, C28A, U52A, C53U, G54C
B34: target 1 MT 5'PFS AAC 3'PFS UCU (mixed)
RNA 1: B1 RNA 1
RNA 2: B1 RNA 2 with C28A, G54U
B35: target 1 MT 5'PFS GAC 3'PFS AUU (mixed)
RNA 1: B1 RNA 1
RNA 2: B1 RNA 2 with A27G, C28A, U52A, C53U, G54U

Target: T1, EsCas13d, nuclease-dead
Assay: crRNA (strand 1, pre-loaded); Mg2+; 40 mM Tris-HCl pH 7.5, 150 mM NaCl, 6 mM MgCl2, 1 mM DTT, 0.1% Tween-20, 0.2 mg/ml BSA; 25 C; 10 min per concentration, then washed
Conditions: tags: His6-TwinStrep-SUMO cleaved; N-terminal SNAP kept (SNAP-Surface 488); label: 3' end held by stalled T7 RNA polymerase

Row | Binder | Kd
1 | B1 | 8.5 ± 3.6 nM
2 | B2 | 8.2 ± 3.2 nM
3 | B3 | 10.6 ± 1.75 nM
4 | B4 | 25.5 ± 6.5 nM
5 | B5 | 11 ± 5.5 nM
6 | B6 | 25 ± 7.05 nM
7 | B7 | 16.5 ± 6 nM
8 | B8 | 33.5 ± 14.5 nM
9 | B9 | 14.3 ± 2.8 nM
10 | B10 | 30 ± 12 nM
11 | B11 | 28.3 ± 6.35 nM
12 | B12 | 14.7 ± 4.85 nM
13 | B13 | 23.5 ± 10 nM
14 | B14 | 45 ± 11 nM
15 | B15 | 20.9 ± 3.75 nM
16 | B16 | 15.5 ± 4 nM
17 | B17 | 19 ± 5.5 nM
18 | B18 | 10.1 ± 0.6 nM

Row | Binder | Kd
19 | B19 | 7.19 ± 0.31 nM
20 | B20 | 17.4 ± 2.25 nM
21 | B21 | 16.9 ± 2.4 nM
22 | B22 | 29 ± 8 nM
23 | B23 | ~47.5 nM
24 | B24 | 38 ± 13 nM
25 | B25 | ~84 nM
26 | B26 | 20 ± 8.5 nM
27 | B27 | 13 ± 2.45 nM
28 | B28 | ~52 nM
29 | B29 | ~60 nM
30 | B30 | 25 ± 5 nM
31 | B31 | ~50 nM
32 | B32 | ~13.5 nM
33 | B33 | ~29 nM
34 | B34 | 22.5 ± 6.5 nM
35 | B35 | 21.4 ± 4.45 nM

Reference: PMC10786891, “Massively parallel profiling of RNA-targeting CRISPR-Cas13d”
